In patent US20170305994A1 (Novo Nordisk, published 2017):

T1: human DR3 (full length, on cells) (human, UniProt Q93038 25-417)
T1 sequence: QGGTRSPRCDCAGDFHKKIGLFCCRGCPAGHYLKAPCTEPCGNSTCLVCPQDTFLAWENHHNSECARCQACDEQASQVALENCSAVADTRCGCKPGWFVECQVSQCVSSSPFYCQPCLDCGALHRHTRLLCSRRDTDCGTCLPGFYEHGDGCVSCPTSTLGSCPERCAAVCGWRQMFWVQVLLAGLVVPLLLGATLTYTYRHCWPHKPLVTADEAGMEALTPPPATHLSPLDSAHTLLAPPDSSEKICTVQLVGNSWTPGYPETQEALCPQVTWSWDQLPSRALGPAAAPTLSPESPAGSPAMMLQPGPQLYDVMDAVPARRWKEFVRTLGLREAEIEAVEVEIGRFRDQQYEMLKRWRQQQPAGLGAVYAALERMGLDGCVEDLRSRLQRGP

T2: human DR3 with the death domain deleted (ΔM339-P417 of SEQ ID NO:1), expressed on CHOK1SV cells (human, UniProt Q93038 25-338)
T2 construct: also called truncated DR3; hDR3 expressing CHO cells
T2 sequence: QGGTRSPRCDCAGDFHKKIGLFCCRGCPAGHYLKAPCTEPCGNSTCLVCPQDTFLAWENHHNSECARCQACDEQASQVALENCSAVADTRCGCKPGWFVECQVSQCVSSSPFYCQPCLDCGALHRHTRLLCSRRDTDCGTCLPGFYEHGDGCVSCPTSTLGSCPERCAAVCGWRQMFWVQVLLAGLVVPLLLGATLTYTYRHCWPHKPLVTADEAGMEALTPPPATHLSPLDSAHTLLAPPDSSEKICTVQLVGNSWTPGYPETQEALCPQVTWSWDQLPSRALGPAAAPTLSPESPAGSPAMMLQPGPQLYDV

B1: 0124 (chimeric Fab of 28F26, human IgG4 constant domain, hinge Cys->Ser) (Fab, V domains shown)
VH: EVKVVESGGGLVKPGGSLKLSCAASGFVFSSYDMSWVRQIPEKRLEWVAAISSGDYYTYYPDSVKGRFTISRDDARNTLYLQMSSLRSEDTALYYCARHRGGNYPQYAMDYWGQGTSVTVSS
VL: DILLTQSPASFAVSLGQRATISCRASKSVSTSGYNYIHWYQQKPGQPPKLLIYLTSNLESGVPARFSGSGSGTDFTLNIHPVEEEDAATYYCQHSRELPFTFGSGTKLEIKR
notes: murine variable domains, human IgG4 constant domain (IgG4-Ser)
B2: 0130 (recombinant murine Fab of 45F36) (Fab, V domains shown)
VH: EVQLVESGGGLVKPGGSLKLSCAASGFTFSSYAMSWVRQSPDKRLEWVAEISSGDTYTYYPDTVTGRFTISRDNAKKTLYLEMSGLRSEDTAMYYCARDREAYYGQQYVMDYWGQGTSVTVSS
VL: DIVLTQSPASLAVSLGLSVTISCRASESIEYSGTSFLQWYQQKPGQPPRLLIYGSSTVESGVPARFSGSGSGTDFSLNIHPVEEDDSAMYFCQQSRRLPWTFGGGTKLEIKR
notes: murine Fab; also called 00130
B3: 0143 (chimeric Fab of 44F434, human IgG4 constant domain, hinge Cys->Ser) (Fab, V domains shown)
VH: EVQLVESGGDLVMPGGSLKLSCAASGFIFSSYGLSWIRQTPDKRLEWVATISGGDSYTYYPDSVKGRFTISSDNAKNTLYLQMTSLKSEDTAMYYCATQREIYYGTYYALDHWGQGTSVTVSS
VL: DIQMTQTTSSLSASLGDRVTISCRASQDINNYLNWYQQKPDGTVKLLIYYTSRLQSGVPSRFSGSGSGTDYSLTISSLEQDDIATYFCQQGSPLPWTFGGGTKLEIKR
notes: IgG4-Ser, chimeric
B4: 0122 (chimeric Fab of 27F16, human IgG4 constant domain, hinge Cys->Ser) (Fab, V domains shown)
VH: EVQLVESGGDFVKPGGSLKLSCAASGFTFNNYGMSWVRQTPDKRLEWVAAISSGVTYTYYPDTVKGRFTISRDNAKNTLYLHMSSLKSEDTAMYYCGRHDDYGNHFDYWGQGTTLTVSS
VL: DIVMTQSPSSLAMSLGQRVTMNCKSSQSLLNSHNQKNYLAWYQQKPGQSPKLLVYFASSRESGVPDRFIGSGSGTDFTLTISSVQAEDLADYFCQQHYSTPFTFGSGTKLEIKR
notes: murine variable domains, human IgG4 constant domain (IgG4-Ser), human kappa
B5: 0118 (chimeric Fab of 27F16, human IgG1 constant domain) (Fab, V domains shown)
VH: EVQLVESGGDFVKPGGSLKLSCAASGFTFNNYGMSWVRQTPDKRLEWVAAISSGVTYTYYPDTVKGRFTISRDNAKNTLYLHMSSLKSEDTAMYYCGRHDDYGNHFDYWGQGTTLTVSS
VL: DIVMTQSPSSLAMSLGQRVTMNCKSSQSLLNSHNQKNYLAWYQQKPGQSPKLLVYFASSRESGVPDRFIGSGSGTDFTLTISSVQAEDLADYFCQQHYSTPFTFGSGTKLEIKR
B6: 0169 (humanized IgG1 Fab of 0072; HC T28A S49A Y91; LC Q3A T5A S60A M4L) (Fab, V domains shown)
VH: EVQLVESGGGLVQPGGSLRLSCAASGFTFSNYDMSWVRQAAGKGLEWVSAFSSDGYTFYPGAVKGRFTISRENAKNSLYLQMNSLRAGDTAVYYCARHADYANYPVMDYWGQGTLVTVSS
VL: DIALAQSPSSLSASVGDRVTITCRASKSVSTSGYSYMHWYQQKPGKAPKLLIYLASNLEAGVPSRFSGSGSGTDFTLTISSLQPEDFATYYCQHSRELPLTFGGGTKVEIK
B7: 0219 (humanized Fab of 27F44, IgG1, S49A HC) (Fab, V domains shown)
VH: EVQLVESGGGLVQPGGSLRLSCAASGFTFSNYDMSWVRQATGKGLEWVAAFSSDGYTFYPGSVKGRFTISRENAKNSLYLQMNSLRAGDTAVYYCARHADYANYPVMDYWGQGTLVTVSS
VL: DIQMTQSPSSLSASVGDRVTITCRASKSVSTSGYSYMHWYQQKPGKAPKLLIYLASNLESGVPSRFSGSGSGTDFTLTISSLQPEDFATYYCQHSRELPLTFGGGTKVEIK
notes: Human IgG1 constant part

Experiments:
[1] = biological target: T1, human DR3 (full length, on cells); assay: cell-based or functional assay
[2] = biological target: T2, human DR3 with the death domain deleted …; assay: flow cytometry competition: Fab vs TL1A on hDR3-expressing CHO cells
[3] = biological target: T1, human DR3 (full length, on cells); assay: cell-based or functional assay; remark: listed apart in the source
[4] = biological target: T1, human DR3 (full length, on cells); assay: cell-based or functional assay; remark: listed apart in the source
DR3 (CRD1)-Fc = biological target: T3, DR3 (CRD1)-Fc (human); assay: SPR Biacore T200, DR3(CRD1)-Fc captured by anti-human IgG, Fab as analyte, 25 C, 1:1 model, mean of 3 surface densities
T3 construct: Amino acids 25-71 of DR3 fused to the Fc domain of human IgG4; purified to exclude oligomers (mainly dimeric)
Procedure: The experiments were performed on a Biacore T200 instrument (GE Healthcare) and analysed with the Biacore T200 Evaluation Software. Anti human IgG antibodies (human IgG capture kit from GE Healthcare) were immobilized on all flow cells of a CM5 sensor chip according to manufacturer's instructions. HBS-EP (GE Healthcare) with 0.1% human serum albumin was used as running buffer. DR3(CRD1)-Fc (SEQ ID NO:2) was captured on the chip at low surface densities between 14 and 45 RU. Fab fragments were diluted to concentrations between 90 and 0.037 nM and subsequently injected for 360 s. […] Binding curves were measured at 25° C. with a flow rate between 30 and 60 μL/min.
Regeneration was performed with 3 M […] for 2×20 s. The raw data were double referenced by subtraction of the signals from a reference flow cell without captured ligand and a buffer blank. Determination of the kinetic parameters was performed by fitting with a 1:1 binding model using the Biacore T200 Evaluation Software (GE Healthcare). Average values obtained from 3 different surface densities of DR3(CRD1)-Fc (SEQ ID NO:2) were calculated and are stated in table 14

[5] = biological target: T1, human DR3 (full length, on cells); assay: cell-based or functional assay; remark: listed apart in the source
[6] = biological target: T1, human DR3 (full length, on cells); assay: cell-based or functional assay; remark: listed apart in the source

T3 sequence (chain, as listed by the source limits assumed): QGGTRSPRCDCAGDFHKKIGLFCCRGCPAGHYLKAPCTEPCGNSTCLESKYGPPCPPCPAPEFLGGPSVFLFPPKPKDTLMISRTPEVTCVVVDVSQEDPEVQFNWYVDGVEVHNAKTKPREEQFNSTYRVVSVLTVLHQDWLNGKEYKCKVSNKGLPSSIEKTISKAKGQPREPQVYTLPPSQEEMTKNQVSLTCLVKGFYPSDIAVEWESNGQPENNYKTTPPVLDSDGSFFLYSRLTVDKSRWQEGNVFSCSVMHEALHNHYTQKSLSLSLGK

Row | Binder | IC50 at 40 ng/ml TL1A, I5 reporter cells [1] [nM] | IC50 [2] [nM] | max percentage inhibition [2] [%] | IC50, TNFalpha inhibition, TL1A-activated CD4+ T cells, donor 1 [4] [nM] | IC50, TNFalpha inhibition, TL1A-activated CD4+ T cells, donor 2 [4] [nM] | max % inhibition of TNFalpha, donor 1 [4] [%] | max % inhibition of TNFalpha, donor 2 [4] [%] | Kd (DR3 (CRD1)-Fc) [nM] | koff (DR3 (CRD1)-Fc) [s⁻¹] | kon (DR3 (CRD1)-Fc) [M⁻¹ s⁻¹] | further results
1 | B1 | 2.4 | 1.3 | 79 | 1.11 | 1.21 | 52.3 | 41.3 | 0.267 | 0.000201 | 752000 | GM-CSF, fold downregulation, +TL1A + anti DR3 Fab [3]: 7.9 fold; IFNγ, fold downregulation, +TL1A + anti DR3 Fab [3]: 1.1 fold; IL-6, fold downregulation, +TL1A + anti DR3 Fab [3]: 13.3 fold; TNFα, fold downregulation, +TL1A + anti DR3 Fab [3]: 5 fold; IC50, TNFalpha inhibition, average (n 4) [4]: 1.33 nM
2 | B2 | 1.4 | 1.34 | 73 | 0.539 | 1.77 | 84.4 | 78 | 0.12 | 0.000208 | 1.74e+06 | IC50, TNFalpha inhibition, average (n 5) [4]: 0.642 nM
3 | B3 | 0.29 | 0.12 | 76 | 0.148 | 0.074 | 76.7 | 66 | 0.00147 | 5.1e-06 | 3.49e+06 | IC50, TNFalpha inhibition, average (n 5) [4]: 0.125 nM
4 | B4 | – | 5.11 | 33 | – | – | 3.9 | 10 | – | – | – | –
5 | B5 | – | – | – | – | – | – | – | – | – | – | IFN-γ, TL1A-costimulated RA SF cells, Fab 0.003 µg/mL [5]: 2310 pg/mL; IFN-γ, TL1A-costimulated RA SF cells, Fab 0.01 µg/mL [5]: 2280 pg/mL; IFN-γ, TL1A-costimulated RA SF cells, Fab 0.03 µg/mL [5]: 2080 pg/mL; IFN-γ, TL1A-costimulated RA SF cells, Fab 0.1 µg/mL [5]: 2100 pg/mL; IFN-γ, TL1A-costimulated RA SF cells, Fab 0.3 µg/mL [5]: 2120 pg/mL; IFN-γ, TL1A-costimulated RA SF cells, Fab 1 µg/mL [5]: 2230 pg/mL; IFN-γ, TL1A-costimulated lymphocytes, Fab 0.003 µg/mL [6]: 132 ng/mL; IFN-γ, TL1A-costimulated lymphocytes, Fab 0.01 µg/mL [6]: 134 ng/mL; IFN-γ, TL1A-costimulated lymphocytes, Fab 0.03 µg/mL [6]: 158 ng/mL; IFN-γ, TL1A-costimulated lymphocytes, Fab 0.1 µg/mL [6]: 151 ng/mL; IFN-γ, TL1A-costimulated lymphocytes, Fab 0.3 µg/mL [6]: 124 ng/mL; IFN-γ, TL1A-costimulated lymphocytes, Fab 1.0 µg/mL [6]: 132 ng/mL
6 | B6 | – | – | – | – | – | – | – | – | – | – | IFN-γ, TL1A-costimulated lymphocytes, Fab 0.003 µg/mL [6]: 121 ng/mL; IFN-γ, TL1A-costimulated lymphocytes, Fab 0.01 µg/mL [6]: 138 ng/mL; IFN-γ, TL1A-costimulated lymphocytes, Fab 0.03 µg/mL [6]: 81 ng/mL; IFN-γ, TL1A-costimulated lymphocytes, Fab 0.1 µg/mL [6]: 58 ng/mL; IFN-γ, TL1A-costimulated lymphocytes, Fab 0.3 µg/mL [6]: 31 ng/mL; IFN-γ, TL1A-costimulated lymphocytes, Fab 1.0 µg/mL [6]: 55 ng/mL
7 | B7 | – | – | – | – | – | – | – | 0.00955 | 3.06e-05 | 3.2e+06 | –
